{"source": "patent US20040072753A1", "about": "“Peptides for use in the treatment of alzheimer's disease” (priority 2000, published 2004)", "origin": "cited, not measured here", "target": "Aβ (Homo sapiens, UniProt P05067)", "conditions": "Milton, Biochem. J. 344: 293-296 (1999); read-out: binding KD for catalase", "data": [{"molecule": "catalase: antioxidant enzyme that binds Aβ (protein) ADSRDPASDQMQHWKEQRAAQKADVLTTGAGNPVGDKLNVITVGPRGPLLVQDVVFTDEMAHFDRERIPERVVHAKGAGAFGYFEVTHDITKYSKAKVFEHIGKKTPIAVRFSTVAGESGSADTVRDPRGFAVKFYTEDGNWDLVGNNTPIFFIRDPILFPSFIHSQKRNPQTHLKDPDMVWDFWSLRPESLHQVSFLFSDRGIPDGHRHMNGYGSHTFKLVNANGEAVYCKFHYKTDQGIKNLSVEDAARLSQEDPDYGIRDLFNAIATGKYPSWTFYIQVMTFNQAETFPFNPFDLTKVWPHKDYPLIPVGKLVLNRNPVNYFAEVEQIAFDPSNMPPGIEASPDKMLQGRLFAYPDTHRHRLGPNYLHIPVNCPYRARVANYQRDGPMCMQDNQGGAPNYYPNSFGAPEQQPSALEHSIQYSGEVRRFNTANDDNVTQVRAFYVNVLNEEQRKRLCENIAGHLKDAQIFIQKKAVKNFTEVHPDYGSHIQALLDKYNAEKPKNAIHTFVQSGSHLAAREKANL", "values": [{"measurement": "Kd", "result": 3.3, "unit": "nM"}]}]}
